In patent US20090170766A1, “Chimeric Kunitz Domains and their Use” (BAYER HEALTHCARE AG, priority 2006, published 2009):
Substitutions are numbered along the chain they refer to. Where two headings read alike, the source gives them in different places. Positions of bridges follow the written chain, without caps; N, C: chain ends. No end group written: not given here.

B1: human tissue factor pathway inhibitor 1 Kunitz domain 1 (hTFPI D1) (other)
chain: MHSFCAFKADDGPCKAIMKRFFFNIFTRQCEEFIYGGCEGNQNRFESLEECKKMCTRD
B2: TFPI mut13EA (SEQ ID NO: 18) (designed binder)
chain: EAMHSFCAFKAVTGPCKARIIRFFFNIFTRQCEEFIYGGCEGNQNRFESLEECKKMCTRD
B3: TFPI mut4EA (SEQ ID NO: 20) (designed binder)
chain: B2 chain with V12E, K17R, R19A, I20H, I21P, F23W, F24W
B4: TFPI mut12EA (SEQ ID NO: 30) (designed binder)
chain: B2 chain with V12S
B5: TFPI mut15EA (SEQ ID NO: 31) (designed binder)
chain: B2 chain with K17R, R19A, I20M, I21K, F24W
B6: TFPI mut11EA (SEQ ID NO: 29) (designed binder)
chain: B2 chain with K17R, R19S, I20F, I21P, F23W
B7: TFPI mut10EA (SEQ ID NO: 28) (designed binder)
chain: B2 chain with V12Y, K17R, R19A
B8: TFPI mut8EA (SEQ ID NO: 26) (designed binder)
chain: B2 chain with V12Y, R19A
B9: TFPI mut3EA (SEQ ID NO: 19) (designed binder)
chain: B2 chain with V12E, K17R, R19A, I20H, I21P, F23W
modifications: ends and bridges not checked; cysteine pairing not given here
B10: TFPI mut7EA (SEQ ID NO: 25) (designed binder)
chain: B2 chain with V12Y
B11: TFPI mut4 (SEQ ID NO: 5) (designed binder)
chain: MHSFCAFKAETGPCRAAHPRWWFNIFTRQCEEFIYGGCEGNQNRFESLEECKKMCTRD
B12: TFPI random (SEQ ID NO: 10) (designed binder)
chain: B1 chain with D10E, D11T, K15R, I17A
B13: TFPI mut3 (SEQ ID NO: 4) (designed binder)
chain: B11 chain with W22F
B14: TFPI mut5 (SEQ ID NO: 8) (designed binder)
chain: B11 chain with E10D, T11D
B15: TFPI mut2 (SEQ ID NO: 7) (designed binder)
chain: B1 chain with K15R, I17A
B16: TFPI mut6 (SEQ ID NO: 9) (designed binder)
chain: B1 chain with F22W

What was measured:
human plasma kallikrein [1] = target: T1, human plasma kallikrein (Homo sapiens, UniProt P03952); assay: Inhibition of plasma kallikrein, fluorogenic substrate assay; assay type: biochemical
T1 construct: purchased Calbiochem 420307
T1 sequence (P03952 391-638 limits assumed): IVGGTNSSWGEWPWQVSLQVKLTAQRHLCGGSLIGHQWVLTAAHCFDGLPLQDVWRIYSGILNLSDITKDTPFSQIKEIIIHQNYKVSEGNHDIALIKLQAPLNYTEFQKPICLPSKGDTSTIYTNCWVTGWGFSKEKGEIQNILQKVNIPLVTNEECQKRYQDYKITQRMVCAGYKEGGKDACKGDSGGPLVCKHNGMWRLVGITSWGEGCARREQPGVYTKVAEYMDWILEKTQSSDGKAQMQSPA
T1 sequence (P03952 20-390 partner limits assumed): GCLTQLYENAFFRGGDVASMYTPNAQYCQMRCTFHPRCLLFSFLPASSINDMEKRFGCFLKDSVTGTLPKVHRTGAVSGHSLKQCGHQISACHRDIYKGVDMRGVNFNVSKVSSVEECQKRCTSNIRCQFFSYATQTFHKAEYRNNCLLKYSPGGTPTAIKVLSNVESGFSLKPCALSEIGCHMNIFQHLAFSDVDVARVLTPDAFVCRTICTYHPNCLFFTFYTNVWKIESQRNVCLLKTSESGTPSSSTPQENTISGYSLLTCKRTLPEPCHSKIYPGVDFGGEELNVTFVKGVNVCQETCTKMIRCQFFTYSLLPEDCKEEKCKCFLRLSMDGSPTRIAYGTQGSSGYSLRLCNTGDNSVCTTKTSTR
Description: (§1) The inhibitory potency of TFPI mut3 on the enzymatic activities of trypsin, plasmin and plasma kallikrein were determined with the aid of fluorogenic substrates in biochemical assays in white 384-well microtitre plates. The assay buffer was composed of 50 mM Tris/Cl, pH 7.4, 100 mM NaCl, 5 mM CaCl2, 0.08% (w/v) BSA. The assay conditions were specifically as follows:
(§2) 10 μl of a serial dilution of TFPI mut3EA were introduced into each well and preincubated with 20 μl of enzyme at RT for 5 min. The reaction was then started by adding 20 μl of substrate to each. The measurement took place after 60-90 min in a Tecan reader with an excitation wavelength of 360 nm and an emission wavelength of 465 nm. Dose-activity plots and half-maximum inhibitory constants (IC50 values) were determined using GraphPad Prism software (version 4.02).

human plasmin [2] = target: T2, human plasmin (Homo sapiens, UniProt P00747); assay: Inhibition of plasmin, fluorogenic substrate assay; assay type: biochemical
T2 construct: enzymatic activities of trypsin, plasmin and plasma kallikrein; purchased Enzyme Research Hplas
T2 sequence (P00747 581-810 limits assumed): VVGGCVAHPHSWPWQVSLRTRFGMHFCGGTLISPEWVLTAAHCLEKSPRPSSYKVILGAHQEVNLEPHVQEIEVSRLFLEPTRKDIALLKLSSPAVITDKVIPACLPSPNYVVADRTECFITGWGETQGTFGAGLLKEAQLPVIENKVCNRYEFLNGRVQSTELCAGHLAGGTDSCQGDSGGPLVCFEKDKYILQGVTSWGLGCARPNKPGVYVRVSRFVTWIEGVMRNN
T2 sequence (P00747 97-580 partner limits assumed): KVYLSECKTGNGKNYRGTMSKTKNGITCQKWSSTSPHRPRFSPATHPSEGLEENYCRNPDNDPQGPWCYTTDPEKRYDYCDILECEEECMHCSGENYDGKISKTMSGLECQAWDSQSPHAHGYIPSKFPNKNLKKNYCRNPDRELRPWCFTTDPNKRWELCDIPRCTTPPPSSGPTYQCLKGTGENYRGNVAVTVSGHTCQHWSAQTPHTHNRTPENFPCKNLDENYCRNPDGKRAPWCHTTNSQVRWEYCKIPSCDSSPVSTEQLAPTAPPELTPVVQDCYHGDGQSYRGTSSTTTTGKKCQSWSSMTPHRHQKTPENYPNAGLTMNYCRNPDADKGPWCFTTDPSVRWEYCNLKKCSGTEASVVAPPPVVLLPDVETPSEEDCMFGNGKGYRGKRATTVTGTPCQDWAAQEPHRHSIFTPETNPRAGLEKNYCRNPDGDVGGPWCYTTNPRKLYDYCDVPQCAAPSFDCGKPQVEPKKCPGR
Description: as §1, §2

human trypsin [3] = assay: Inhibition of trypsin, fluorogenic substrate assay; assay type: biochemical
Description: as §1, §2

human plasma kallikrein [4] = target: T3, human plasma kallikrein (human, UniProt P03952); assay: cell-based or functional assay
human trypsin [5] = target: T4, human trypsin (human, UniProt P07477); assay: cell-based or functional assay
human plasmin [6] = target: T5, human plasmin (human, UniProt P00747); assay: cell-based or functional assay
human plasma kallikrein [7] = target: T3, human plasma kallikrein
human trypsin [8] = target: T4, human trypsin
human plasmin [9] = target: T5, human plasmin
Target sequence in this assay (P00747 97-810 limits assumed): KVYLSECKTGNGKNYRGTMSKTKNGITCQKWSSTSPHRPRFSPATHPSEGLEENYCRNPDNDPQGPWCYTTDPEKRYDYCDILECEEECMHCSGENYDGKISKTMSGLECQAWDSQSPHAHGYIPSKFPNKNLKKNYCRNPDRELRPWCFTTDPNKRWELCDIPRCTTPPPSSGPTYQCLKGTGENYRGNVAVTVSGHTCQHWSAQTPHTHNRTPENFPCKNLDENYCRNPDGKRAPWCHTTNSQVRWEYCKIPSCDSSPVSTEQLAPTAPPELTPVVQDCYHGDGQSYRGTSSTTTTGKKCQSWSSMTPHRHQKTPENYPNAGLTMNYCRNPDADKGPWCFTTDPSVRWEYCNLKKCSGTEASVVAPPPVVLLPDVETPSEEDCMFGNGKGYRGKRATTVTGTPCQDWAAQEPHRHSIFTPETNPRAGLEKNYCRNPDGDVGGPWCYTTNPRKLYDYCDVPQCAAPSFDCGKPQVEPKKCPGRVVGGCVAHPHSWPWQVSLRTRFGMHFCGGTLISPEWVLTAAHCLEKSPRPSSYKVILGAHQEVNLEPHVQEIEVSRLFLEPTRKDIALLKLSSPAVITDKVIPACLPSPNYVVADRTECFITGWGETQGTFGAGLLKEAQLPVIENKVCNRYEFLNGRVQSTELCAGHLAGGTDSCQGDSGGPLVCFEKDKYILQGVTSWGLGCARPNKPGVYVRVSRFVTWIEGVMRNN

Molecule	IC50 (human plasma kallikrein [1]) [nM]	IC50 (human plasmin [2]) [nM]	Plasma kallikrein IC50 [nM], inhibition of enzymatic activity, fluorogenic substrate (human plasma kallikrein [7]) [nM]	Trypsin IC50 [nM], inhibition of enzymatic activity, fluorogenic substrate (human trypsin [8]) [nM]	Plasmin IC50 [nM], inhibition of enzymatic activity, fluorogenic substrate (human plasmin [9]) [nM]	also measured
EAMHSFCAFKAYTGPCRAAIIRFFFNIFTRQCEEFIYGGCEGNQNRFESLEECKKMCTRD (disulfide 7-57, 16-40, 32-53) [SEQ ID NO: 28]	8	77	–	–	–	–
MHSFCAFKAETGPCRAAMKRFFFNIFTRQCEEFIYGGCEGNQNRFESLEECKKMCTRD (disulfide 5-55, 14-38, 30-51) [SEQ ID NO: 10]	48	27	–	–	–	–
MHSFCAFKADDGPCKAIMKRFWFNIFTRQCEEFIYGGCEGNQNRFESLEECKKMCTRD (disulfide 5-55, 14-38, 30-51) [SEQ ID NO: 9]	> 10	497	–	–	–	–
EAMHSFCAFKAVTGPCKARIIRFFFNIFTRQCEEFIYGGCEGNQNRFESLEECKKMCTRD (disulfide 7-57, 16-40, 32-53) [SEQ ID NO: 18]	1.48	47	–	–	–	–
MHSFCAFKAETGPCRAAHPRWFFNIFTRQCEEFIYGGCEGNQNRFESLEECKKMCTRD (disulfide 5-55, 14-38, 30-51) [SEQ ID NO: 4]	3	32	–	–	–	–
MHSFCAFKADDGPCRAAMKRFFFNIFTRQCEEFIYGGCEGNQNRFESLEECKKMCTRD (disulfide 5-55, 14-38, 30-51) [SEQ ID NO: 7]	11	195	–	–	–	–
EAMHSFCAFKAVTGPCRASFPRWFFNIFTRQCEEFIYGGCEGNQNRFESLEECKKMCTRD (disulfide 7-57, 16-40, 32-53) [SEQ ID NO: 29]	16	19	–	–	–	–
EAMHSFCAFKAYTGPCKARIIRFFFNIFTRQCEEFIYGGCEGNQNRFESLEECKKMCTRD (disulfide 7-57, 16-40, 32-53) [SEQ ID NO: 25]	1.19	52	–	–	–	–
MHSFCAFKADDGPCRAAHPRWWFNIFTRQCEEFIYGGCEGNQNRFESLEECKKMCTRD (disulfide 5-55, 14-38, 30-51) [SEQ ID NO: 8]	1	267	–	–	–	–
SEQ ID NO: 5: hTFPI D1 variant: MSSFCAFKAETGPCRAAHPRWWFNIFTRQCEEFIYGGCEGNQNRFESLEECKKMCTRD	–	–	–	–	–	IC50 (human plasma kallikrein [1]; human plasma kallikrein, read-out: Plasma kallikrein IC50): 3 nM; IC50 (human plasmin [2]; human plasmin, read-out: Plasmin IC50): 24 nM; IC50 (human trypsin [3]): 8 nM
EAMHSFCAFKAETGPCRAAHPRWFFNIFTRQCEEFIYGGCEGNQNRFESLEECKKMCTRD (disulfide 7-57, 16-40, 32-53) [SEQ ID NO: 19]	3	30	–	–	–	–
EAMHSFCAFKAETGPCRAAHPRWWFNIFTRQCEEFIYGGCEGNQNRFESLEECKKMCTRD (disulfide 7-57, 16-40, 32-53) [SEQ ID NO: 20]	2	24	–	–	–	–
EAMHSFCAFKAYTGPCKAAIIRFFFNIFTRQCEEFIYGGCEGNQNRFESLEECKKMCTRD (disulfide 7-57, 16-40, 32-53) [SEQ ID NO: 26]	194	83	–	–	–	–
EAMHSFCAFKAVTGPCRAAMKRFWFNIFTRQCEEFIYGGCEGNQNRFESLEECKKMCTRD (disulfide 7-57, 16-40, 32-53) [SEQ ID NO: 31]	75	48	–	–	–	–
MHSFCAFKADDGPCKAIMKRFFFNIFTRQCEEFIYGGCEGNQNRFESLEECKKMCTRD (disulfide 5-55, 14-38, 30-51) [hTFPI D1, reference compound]	> 10	–	–	–	–	–
EAMHSFCAFKASTGPCKARIIRFFFNIFTRQCEEFIYGGCEGNQNRFESLEECKKMCTRD (disulfide 7-57, 16-40, 32-53) [SEQ ID NO: 30]	2.34	56	–	–	–	–

Molecule	IC50 (human plasma kallikrein [1]) [nM]	IC50 (human plasmin [2]) [nM]	Plasma kallikrein IC50 [nM], inhibition of enzymatic activity, fluorogenic substrate (human plasma kallikrein [7]) [nM]	Trypsin IC50 [nM], inhibition of enzymatic activity, fluorogenic substrate (human trypsin [8]) [nM]	Plasmin IC50 [nM], inhibition of enzymatic activity, fluorogenic substrate (human plasmin [9]) [nM]	also measured
B1	–	–	–	–	–	Plasma kallikrein IC50 [nM], inhibition of enzymatic activity, fluorogenic substrate (human plasma kallikrein [4]): > 10000 nM; Trypsin IC50 [nM], inhibition of enzymatic activity, fluorogenic substrate (human trypsin [5]): 44 nM; Plasmin IC50 [nM], inhibition of enzymatic activity, fluorogenic substrate (human plasmin [6]): 559 nM
B2	–	–	1480	20	47	–
B3	–	–	2	7	24	–
B4	–	–	2340	21	56	–
B5	–	–	75	1	48	–
B6	–	–	16	4	19	–
B7	–	–	8	17	77	–
B8	–	–	194	64	83	–
B9	–	–	3	5	30	–
B10	–	–	1190	38	52	–
B11	–	–	3	8	24	–
B12	–	–	48	6	27	–
B13	–	–	3	5	32	–
B14	–	–	1	266	267	–
B15	–	–	11	19	195	–
B16	–	–	> 10000	36	497	–
